Laboratory results as given in US20250002588A1 (DIAGONAL THERAPEUTICS, published 2025).
Changes are numbered by the printed parent chain.

T1: human BMPRII protein (Sino Biological, #10551-H08H) (human, UniProt Q13873 27-150)
T1 sequence (looked up): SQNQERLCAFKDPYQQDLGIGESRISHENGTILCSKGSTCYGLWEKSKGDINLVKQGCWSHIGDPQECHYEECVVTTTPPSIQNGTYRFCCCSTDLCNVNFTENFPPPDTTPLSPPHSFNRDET

B1: DGL641 (bispecific antibody)
chain 1: EVQLLESGGGLVQPGGSLRLSCAASGFTFSNAWMNWVRQAPGKGLEWVSSISSSSSYIYYADSVKGRFTISRDNSKNTLYLQMNSLRAEDTAVYYCARAVAAGGMFWGLDQWGQGTLVTVTSSGGGGSGGGGSGGGGSQSVLTQPPSASGTPGQRVTISCSGSRSNIGSNSVHWYQQLPGTAPKLLIYGNSNRPSGVPDRFSGSKSGTSASLAISGLRSEDEADYYCQSYDSSLNDHVVFGGGTKLTVLDKTHTCPPCPAPEAAGAPSVFLFPPKPKDTLMISRTPEVTCVVVDVSHEDPEVKFNWYVDGVEVHNAKTKPREEQYNSTYRVVSVLTVLHQDWLNGKEYKCKVSNKALPAPIEKTISKAKGQPREPQVCTLPPSRDELTKNQVSLSCAVKGFYPSDIAVEWESNGQPENNYKTTPPVLDSDGSFFLVSKLTVDKSRWQQGNVFSCSVMHEALHNHYTQKSLSLSPGWSHPQFEK
chain 2: not shown
B2: DGL648 (bispecific antibody)
chain 1: B1 chain 1 with M105L
chain 2: not shown
B3: DGL647 (bispecific antibody)
chain 1: B1 chain 1 with M105F
chain 2: not shown
B4: DGL644 (bispecific antibody)
chain 1: B1 chain 1 with A99S, V100N, A101G, A102S, M105S, F106T, W107S, G108P, Q111L
chain 2: not shown
B5: DGL645 (bispecific antibody)
chain 1: B1 chain 1 with A102G, G103T, G104S, F106W, W107Y
chain 2: not shown
B6: DGL649 (bispecific antibody)
chain 1: B1 chain 1 with N31L, S55T
chain 2: not shown
B7: DGL869 (bispecific antibody)
chain 1: not shown
chain 2: EVQLLESGGGLVQPGGSLRLSCAASGFTFSDYYMTWIRQAPGKGLEWVSSISGGSTYYADSRKGRFTISRDNSENTLYLQMNSLRAEDTAVYYCARDFGVAGWFGQYGMDVWGQGTLVTVSSGGGGSGGGGSGGGGSQSVLTQPPSASGTPGQRVTISCTGSSSNIGAGYDVHWYQQLPGTAPKLLIYRSNQRPSGVPDRFSGSKSGTSASLAISGLRSEDEADYYCSSYAGNYNLVFGGGTKLTVLDKTHTCPPCPAPEAAGAPSVFLFPPKPKDTLMISRTPEVTCVVVDVSHEDPEVKFNWYVDGVEVHNAKTKPREEQYNSTYRVVSVLTVLHQDWLNGKEYKCKVSNKALPAPIEKTISKAKGQPREPQVCTLPPSRDELTKNQVSLSCAVKGFYPSDIAVEWESNGQPENNYKTTPPVLDSDGSFFLVSKLTVDKSRWQQGNVFSCSVMHEALHNHYTQKSLSLSPGWSHPQFEK
B8: DGL872 (bispecific antibody)
chain 1: not shown
chain 2: B7 chain 2
B9: DGL875 (bispecific antibody)
chain 1: not shown
chain 2: B7 chain 2
B10: DGL879 (bispecific antibody)
chain 1: not shown
chain 2: B7 chain 2 with N233L
B11: DGL877 (bispecific antibody)
chain 1: not shown
chain 2: B7 chain 2 with S163A
B12: DGL873 (bispecific antibody)
chain 1: not shown
chain 2: B7 chain 2
B13: DGL870 (bispecific antibody)
chain 1: not shown
chain 2: B7 chain 2
B14: DGL880 (bispecific antibody)
chain 1: not shown
chain 2: B7 chain 2 with S163A, S195A, N233L
B15: DGL871 (bispecific antibody)
chain 1: not shown
chain 2: B7 chain 2
B16: DGL874 (bispecific antibody)
chain 1: not shown
chain 2: B7 chain 2
B17: DGL878 (bispecific antibody)
chain 1: not shown
chain 2: B7 chain 2 with S195A
B18: DGL876 (bispecific antibody)
chain 1: not shown
chain 2: B7 chain 2
B19: DGL945 (bispecific antibody, human IgG1, lambda)
heavy: EVQLLESGGGLVQPGGSLRLSCAASGFTFSDYYMTWIRQAPGKGLEWVSSISGGSTYYADSRKGRFTISRDNSENTLYLQMNSLRAEDTAVYYCARDFGVAGWFGQYGMDVWGQGTLVTVSSPLAPEVQLLESGGGLVQPGGSLRLSCAASGFTFSSYAMSWVRQAPGKGLEWVANINQDGSEKNYVDSMRGRFTISRDNSKNTLYLQMNSLRAEDTAVYYCAREFDYWGQGTLVTVSSASTKGPSVFPLAPSSKSTSGGTAALGCLVKDYFPEPVTVSWNSGALTSGVHTFPAVLQSSGLYSLSSVVTVPSSSLGTQTYICNVNHKPSNTKVDKKVEPKSCDKTHTCPPCPAPEAAGAPSVFLFPPKPKDTLYITREPEVTCVVVDVSHEDPEVKFNWYVDGVEVHNAKTKPREEQYNSTYRVVSVLTVLHQDWLNGKEYKCKVSNKALPAPIEKTISKAKGQPREPQVYTLPPSRDELTKNQVSLTCLVKGFYPSDIAVEWESNGQPENNYKTTPPVLDSDGSFFLYSKLTVDKSRWQQGNVFSCSVMHEALHNHYTQKSLSLSPG
light: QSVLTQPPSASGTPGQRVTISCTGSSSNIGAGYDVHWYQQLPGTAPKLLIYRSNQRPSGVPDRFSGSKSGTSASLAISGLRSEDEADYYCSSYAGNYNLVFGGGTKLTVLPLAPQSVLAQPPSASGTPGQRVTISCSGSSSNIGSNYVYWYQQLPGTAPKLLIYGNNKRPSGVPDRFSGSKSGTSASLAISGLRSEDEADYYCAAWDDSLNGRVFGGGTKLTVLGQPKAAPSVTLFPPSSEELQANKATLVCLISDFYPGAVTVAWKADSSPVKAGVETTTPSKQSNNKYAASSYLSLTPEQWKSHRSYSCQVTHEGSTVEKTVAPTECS

biological target: human ALK1 protein (Sino Biological, #10066-H08H) (human, UniProt P37023 22-118); assay: ELISA, coated human ALK1
Summary of the method: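 Antibody binding is read as A450 via TMB after anti-human IgG Fc–HRP secondary (2 μg/ml, 1 h, room temperature). Antibodies, diluted in PBS/0.1% BSA, were incubated 1 h at room temperature on wells coated overnight at 4 °C with 2 μg/ml BMPRII or ALK1.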

Chain of human ALK1 protein (Sino Biological, #10066-H08H) (P37023 22-118 limits assumed): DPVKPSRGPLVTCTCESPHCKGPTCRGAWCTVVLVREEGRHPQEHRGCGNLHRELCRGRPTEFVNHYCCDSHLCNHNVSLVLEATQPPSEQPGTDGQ

| Binder | Abs450 1 nM | Abs450 10 nM | Abs450 100 nM |
| --- | --- | --- | --- |
| B1 | 0.07 | 0.15 | 0.83 |
| B2 | 0.08 | 0.17 | 0.8 |
| B3 | 0.07 | 0.16 | 0.84 |
| B4 | 0.06 | 0.1 | 0.54 |
| B5 | 0.07 | 0.13 | 0.59 |
| B6 | 0.07 | 0.18 | 0.81 |

biological target: T2, ALK-1/BMPR-2 receptor pair of the PathHunter U2Os dimerization cells (DiscoverX 93-0962C3) (UniProt P37023 22-503; Q13873 27-1038); assay: cell-based or functional assay

| Binder | % Emax BMP9 [%] | Emax (RLU) |
| --- | --- | --- |
| B1 | 76 | 1.41e+06 |
| B2 | 78 | 1.45e+06 |
| B3 | 79 | 1.46e+06 |
| B4 | 8 | 153000 |
| B5 | 19 | 353000 |
| B6 | 35 | 648000 |

biological target: T2, ALK-1/BMPR-2 receptor pair of the …; assay: cell-based or functional assay; remark: another data set of the same source

| Binder | % Emax BMP9 [%] | Emax (RLU) |
| --- | --- | --- |
| B7 | 56 | 1.44e+06 |
| B8 | 57 | 1.46e+06 |
| B9 | 65 | 1.66e+06 |
| B10 | 71 | 1.81e+06 |
| B11 | 76 | 1.95e+06 |
| B12 | 60 | 1.55e+06 |
| B13 | 56 | 1.42e+06 |
| B14 | 66 | 1.68e+06 |
| B15 | 62 | 1.59e+06 |
| B16 | 61 | 1.56e+06 |
| B17 | 73 | 1.88e+06 |
| B18 | 61 | 1.57e+06 |

biological target: T2, ALK-1/BMPR-2 receptor pair of the …; assay: cell-based or functional assay; remark: another data set of the same source

| Binder | % Emax BMP9 [%] |
| --- | --- |
| B19 | 78 |

biological target: T1, human BMPRII protein (Sino Biological, …); assay: ELISA, coated human BMPRII
Procedure: These binders were then tested using an ELISA assay. High binding plates (Corning, 9018) were coated with either 2 μg/ml of human BMPRII protein (Sino Biological, #10551-H08H) or 2 μg/ml of human ALK1 protein (Sino Biological, #10066-H08H) overnight at 4C. The plates were then washed three times with wash buffer (R&D Systems, WA126). […] The plates were then washed three times with wash buffer and DGL antibodies or controls, which were diluted with PBS and 0.1% BSA. The antibodies were incubated for one hour at room temperature and then the plates were washed three times with wash buffer. The plates were then incubated with mouse anti-human IgG Fc secondary—HRP (diluted with PBS/0.1% BSA); 100 ul per well at 2 μg/ml and incubated at room temperature for one hour. The plate was washed three times in wash buffer and then 100 ul TMB (R&D Systems, DY9998B, substrate reagent pack). After the wells turn blue, 50 ul of stop solution (R&D Systems, DY994) was added to each well and the absorbance of the plate was read at 450 nm. results can be found in Table 8.

| Binder | Abs450 1 nM | Abs450 10 nM | Abs450 100 nM |
| --- | --- | --- | --- |
| B1 | 0.33 | 0.43 | 0.9 |
| B2 | 0.24 | 0.33 | 0.77 |
| B3 | 0.25 | 0.51 | 1.9 |
| B4 | 0.23 | 0.2 | 0.17 |
| B5 | 0.23 | 0.21 | 0.16 |
| B6 | 0.3 | 0.32 | 0.76 |
